From the supplement of paper PMC10724198
± gives the standard deviation of the averaged measurements.

These sequences were tested on Saccharomyces cerevisiae (assay: protein stability index of tFT-peptide fusion (C-terminal peptide) (PSI (0-1 scale)); higher = more stable (slower turnover)). Conditions: genetic background: wild type; temperature: 30 C.
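Further: PSI is a weighted mean of sequencing reads over stability bins, variants kept only with over 10 reads, mCherry proximal and sfGFP distal, peptide attached via GGGS linker.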

Sequence	protein stability index
IDASPRFRDFLF	0.71 ± 0.022
IDLIKIKKKTKK	0.786 ± 0.17
IDQTSKRCKRAC	0.672 ± 0.018
IDYETIQKYKVE	0.633 ± 0.011
IEEQQKEKNRPK	0.712 ± 0.027
IFGRLRELTCWT	0.588 ± 0.034
IFHLFPFDNPYD	0.8 ± 0.048
IFMGSPYPRLPT	0.633 ± 0.018
IFPLPPSSRLTP	0.6934 ± 0.0037
IFWRGVVDVCSG	0.584 ± 0.065
IGATSMSREARY	0.7052 ± 0.0017
IGCEVLQCRCVD	0.672 ± 0.014
IGRLQGWSSGDE	0.688 ± 0.037
IGRWGVRWKAVG	0.512 ± 0.053
IGSCLSRTRKRR	0.6922 ± 0.0031
IHEGIKNENFKR	0.71 ± 0.0053
IHLQGSSYRSLT	0.68 ± 0.14
IHQDGEQKETRK	0.6948 ± 0.0047
IHSPCAMRPLIS	0.672 ± 0.0087
IHSRAAVGEYTG	0.6425 ± 0.0046
IHTNICKSKDII	0.706 ± 0.025
IILDRQNRDLKY	0.634 ± 0.084
IINKRITKETDE	0.6738 ± 0.0023

Sequence	protein stability index
IINKRYEFRERT	0.764 ± 0.03
IISQLEQSFISP	0.7402 ± 0.0056
IKEITKENNRNE	0.708 ± 0.083
IKIKKKKKKKRD	0.665 ± 0.012
IKKEENKNENQE	0.6809 ± 0.0035
IKKRHQNGGKKE	0.65 ± 0.0085
IKKRVTFSYDGK	0.686 ± 0.062
IKMRKICLIGSM	0.603 ± 0.052
IKRVPRRSEYRG	0.633 ± 0.043
IKSTYRNPLPPL	0.657 ± 0.038
IKYEKENNINKI	0.679 ± 0.039
ILCPIKHKRKGS	0.703 ± 0.064
ILFLGSLGCPGG	0.697 ± 0.019
ILGVVLRLCNCQ	0.7834 ± 0.0055
ILIYFWFSFFFF	0.753 ± 0.013
ILKKLNQEINKE	0.698 ± 0.028
ILLSETEMIDAD	0.683 ± 0.022
ILPPCVNIGSGV	0.64 ± 0.043
ILQGENKEGINT	0.668 ± 0.035
ILSRAGMITHCR	0.642 ± 0.019
ILTAVFAVPILP	0.57 ± 0.04
INIQKKKKIQHI	0.508 ± 0.031
INKKKKKKSKQK	0.7 ± 0.089

Sequence	protein stability index
INKLRLNKKKSF	0.659 ± 0.008
INRGGLVRGFGS	0.725 ± 0.17
INSEKKKDRNKL	0.779 ± 0.02
INTNASSWRICK	0.7379 ± 0.0049
INVCVLSSSTAS	0.684 ± 0.079
IPCLPHPSLPPQ	0.757 ± 0.039
IPFPSFPASLYR	0.694 ± 0.021
IPGDTLSTTTVT	0.67 ± 0.05
IPLGGPTPSNYD	0.721 ± 0.025
IPSHSVLCLSIY	0.497 ± 0.042
IQHWGIRRRITY	0.728 ± 0.066
IQKIKYKRKYIK	0.73 ± 0.027
IQLPPPYATPPS	0.645 ± 0.012
IQSRDDTVEGRK	0.63 ± 0.0095
IRAKKLNKSNNK	0.7028 ± 0.0053
IREQQKNQNHKE	0.642 ± 0.051
IRGAARRRTQGY	0.731 ± 0.038
IRGGGGLGGGGV	0.703 ± 0.023
IRGIKSRKFTSV	0.753 ± 0.0079
IRGYSVKRIRED	0.683 ± 0.045
IRHSTRTRPSSV	0.745 ± 0.03
IRNACRINESQC	0.698 ± 0.017
IRPFSPAPPRYP	0.722 ± 0.075

Sequence	protein stability index
IRPPPPPPPRAA	0.59 ± 0.07
IRRSVVRCLFTE	0.707 ± 0.056
IRTITSVQTFPE	0.673 ± 0.029
ISCFRLGFVRKI	0.535 ± 0.0058
ISCGERSRGGGK	0.6122 ± 0.0029
ISEGKTIIYCLW	0.523 ± 0.081
ISEGNNQNLSQT	0.689 ± 0.011
ISEGSSRFRTSL	0.6542 ± 0.0025
ISFVFSDSLFPI	0.785 ± 0.012
ISGIKNKKKKGT	0.684 ± 0.066
ISHPTPQSVPAI	0.612 ± 0.0063
ISLGVDFSFCSL	0.7014 ± 0.0042
ISLTSYVCGRVL	0.648 ± 0.014
ISLWALSQLPVP	0.79 ± 0.19
ISPGWLSRLWVR	0.629 ± 0.0083
ISPRLGLPLAPL	0.732 ± 0.067
ISPTTFSTHDRC	0.665 ± 0.077
ISQAIMTNPIKE	0.598 ± 0.14
ISVPMPSFGPLP	0.6938 ± 0.002
ISVPPFPAPPPP	0.745 ± 0.13
ISYLSILTSCPW	0.65423 ± 0.00026
ISYQVDIIKGKI	0.6781 ± 0.00071
ITFTCRHQGKKK	0.759 ± 0.095

Sequence	protein stability index
ITRVGSLENSQV	0.635 ± 0.013
ITSSPNVGKTTN	0.713 ± 0.024
ITSWCNVFLGRA	0.71 ± 0.018
IVADKSPLSSPP	0.6947 ± 0.0017
IVENSLEEKERR	0.673 ± 0.056
IVGIEGYNEIKT	0.803 ± 0.27
IVKFVRAIGRKK	0.664 ± 0.028
IVPPPHRHRRSI	0.824 ± 0.064
IVSNLILSKRCN	0.652 ± 0.064
IVTLPTNPYTPV	0.717 ± 0.046
IVTQGCLFFLVR	0.687 ± 0.038
IWTSFKRRRWNF	0.532 ± 0.033
IWVGNEENEEII	0.669 ± 0.082
IYSWSAALFHCR	0.75 ± 0.1
IYVWALSPVTLP	0.628 ± 0.019
KAGCDYYHRRSF	0.675 ± 0.061
KAGDRRPDNHSN	0.66 ± 0.064
KANIKGIKTRIT	0.642 ± 0.076
KARNIVESGKTQ	0.722 ± 0.038
KASAASLFILMS	0.611 ± 0.012
KASEALGYTSNE	0.675 ± 0.037
KATNLNKVRRWE	0.693 ± 0.048
KCCRVTCCGGLR	0.65 ± 0.028

Sequence	protein stability index
KCLALSAGWIAT	0.627 ± 0.033
KCRGRGRQEAFE	0.6643 ± 0.0018
KCVDSREKITMD	0.672 ± 0.072
KDGGRLRVDQWI	0.706 ± 0.076
KDKKERTTEKKT	0.693 ± 0.13
KDLFDLYLKRLL	0.65 ± 0.0098
KDVYEKHLNKQT	0.722 ± 0.1
KEDGEIIDRYVL	0.616 ± 0.074
KEEKLKNKITKY	0.679 ± 0.011
KEEKRMKLKKLQ	0.537 ± 0.082
KEEYSYQRVGEL	0.661 ± 0.015
KEGDMWRVSTLD	0.682 ± 0.016
KELGGSSEITEI	0.658 ± 0.072
KELIGITYKNSS	0.6766 ± 0.0058
KEMRCRKKKEGK	0.683 ± 0.048
KEQNKKQKAKDL	0.719 ± 0.1
KEQYFKGSKKPI	0.651 ± 0.029
KERKNKKINRKF	0.686 ± 0.093
KEVDGRALVAEE	0.655 ± 0.035
KEVNEDIDKAKS	0.782 ± 0.18
KEWGGEGRDAWG	0.6834 ± 0.0061
KEYKKKKKKIDK	0.671 ± 0.022
KFIVQNENSGQC	0.677 ± 0.041

Sequence	protein stability index
KFKVLKVLEVRL	0.6453 ± 0.0019
KFLQRTPGHSSE	0.699 ± 0.048
KGDCGGRGCGRH	0.682 ± 0.0076
KGKKTKQKRAKK	0.6521 ± 0.0064
KGKNTEKEEEEK	0.685 ± 0.019
KGQPTTRVKEEW	0.654 ± 0.0091
KGRAERKKDKKR	0.684 ± 0.025
KGRAGTDVPLAR	0.712 ± 0.052
KGRQVDQALVRG	0.634 ± 0.019
KGTRKPSTKIIV	0.667 ± 0.074
KGWGDGPGSYVN	0.68 ± 0.035
KGYEGGRRCELE	0.696 ± 0.039
KHCFDIEILRYQ	0.664 ± 0.016
KHFLFSVVHFSG	0.696 ± 0.028
KHSTTSRCVWYT	0.627 ± 0.13
KIDEQNKNKMGM	0.615 ± 0.082
KIDKLRKRQRKK	0.664 ± 0.017
KIENQKKRLQRT	0.708 ± 0.028
KIGVHRGRGGRM	0.614 ± 0.13
KIKESIKIKKKR	0.6789 ± 0.0027
KIMIGQPDGINV	0.65 ± 0.015
KIQLTTMKNHGK	0.685 ± 0.013
